Values quoted from earlier work, collected in paper PMC10876095.
pKd: −log10 of the molar value. Where two headings read alike, the source gives them in different places.

What was measured:
tau (Homo sapiens) [1] = target: tau (Homo sapiens) (UniProt P10636); experiment: SPR
tau (Homo sapiens) [2] = target: tau (Homo sapiens) (UniProt P10636); experiment: SPR; remark: listed apart in the source
tau (Homo sapiens) [3] = target: tau (Homo sapiens) (UniProt P10636)

Sequence of UniProt P10636 (P10636 2-758): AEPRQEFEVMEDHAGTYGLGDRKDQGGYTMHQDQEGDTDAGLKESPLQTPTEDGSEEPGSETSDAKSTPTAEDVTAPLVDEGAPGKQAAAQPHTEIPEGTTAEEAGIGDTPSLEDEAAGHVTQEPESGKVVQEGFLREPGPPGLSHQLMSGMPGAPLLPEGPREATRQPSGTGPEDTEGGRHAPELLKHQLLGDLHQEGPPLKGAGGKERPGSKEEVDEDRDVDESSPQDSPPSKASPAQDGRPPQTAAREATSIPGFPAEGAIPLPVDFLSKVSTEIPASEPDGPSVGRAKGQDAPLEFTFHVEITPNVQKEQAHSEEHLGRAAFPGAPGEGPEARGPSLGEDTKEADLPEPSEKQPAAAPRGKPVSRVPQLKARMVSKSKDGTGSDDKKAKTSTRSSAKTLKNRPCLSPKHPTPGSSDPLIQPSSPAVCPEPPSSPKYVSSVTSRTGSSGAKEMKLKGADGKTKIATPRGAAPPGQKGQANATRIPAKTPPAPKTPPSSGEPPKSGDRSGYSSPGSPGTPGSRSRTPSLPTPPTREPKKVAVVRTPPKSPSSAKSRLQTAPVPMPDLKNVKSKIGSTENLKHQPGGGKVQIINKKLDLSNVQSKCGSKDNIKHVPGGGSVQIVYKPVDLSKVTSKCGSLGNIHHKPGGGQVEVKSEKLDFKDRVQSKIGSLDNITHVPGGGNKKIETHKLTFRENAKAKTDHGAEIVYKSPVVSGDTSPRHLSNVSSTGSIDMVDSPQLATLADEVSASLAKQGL

In the case of 14-3-3ζ (from UniProt P63104), the pKd (tau (Homo sapiens) [1]) is given as 7.66, the pKd (tau (Homo sapiens) [2]) is given as 6.51 and the pKd (tau (Homo sapiens) [3]) is given as 6.05.
